These are literature values, as cited in paper PMC11750407.

This series has as its target coagulation factor Xa (Homo sapiens) (UniProt P00742).
Chain of UniProt P00742 (P00742 41-179, chain 1 of 2): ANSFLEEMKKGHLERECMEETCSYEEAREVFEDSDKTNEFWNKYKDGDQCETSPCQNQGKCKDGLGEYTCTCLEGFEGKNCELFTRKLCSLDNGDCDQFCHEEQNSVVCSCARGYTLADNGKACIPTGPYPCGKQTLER
Chain of UniProt P00742 (P00742 235-488, chain 2 of 2): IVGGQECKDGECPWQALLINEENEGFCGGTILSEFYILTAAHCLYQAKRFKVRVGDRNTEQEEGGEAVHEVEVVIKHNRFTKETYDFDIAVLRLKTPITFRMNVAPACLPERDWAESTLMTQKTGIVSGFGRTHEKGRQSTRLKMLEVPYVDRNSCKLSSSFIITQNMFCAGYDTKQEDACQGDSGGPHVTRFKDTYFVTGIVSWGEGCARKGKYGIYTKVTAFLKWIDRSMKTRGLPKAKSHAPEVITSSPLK

The term Kd denotes the concentration at which binding is half-saturated. For “coagulation factor Va (from UniProt P12259)”, the Kd is 1000 nM.
